The source of these data is a protein production outcome set (Wang et al. 2014).

This data set is described as follows: label from the status in PepcDB records.
As for “MKLVVVSAGLSVPSSTRLLADRLAKATAARVPAEVEVVELRDLAVEIAHNFTNGFPGRALAAAIGAVTEADGLIVVTPVFSASYSGLFKSFFDVLEQGVLAGKPVLIAATGGSARHSLVLEHALRPLFAHLRAVVVPTGVYAASEDWGAEGLAERIERAAGELAGLMTGLMSGVSAVGPARDAQPRAGAEVSADGPAAAPAEGSVPRPRETVAQSATAGRGSRTDGFQVVPFEQQLAALRTR”, the protein production result was “failed”.

In the case of “MKMDTGALTFQQKIYWLVKQIPLGRVATYGQIAALCGWPRHGRYVGYALYRVAPNSDIPWHRVVNAQGKISYAPQRRGTDELQRWRLAAEGIIFTAGDRINLRRYQWQPPATVYQQLIWPEGAATDSAKALEHHHHHH”, the protein production entry is “not failed”. Turning to “MKMKILGISFGTKNGNNDTMCKVALKGAKEAGAEVEFIQMSSINIKHCTGCCACVKTLLSGKGSMCVLKDDFEWLLDKMKDADGIVVSDPIFEEGASGLFHTIMDRFGPRADRGNNIIGTKVAEAIGGKIPDSRMLNDKVISFMGIGGSDWGTRVQCEHAMLALIPMWKVIDNAWFPWAKELVMDDTRLVQVHQIGLNIVEAAKDFEKASYQGEEGVCPHCHNRLFYLEPGTKKAICALCGIVGELDTISGKTIFSFPEEQLGHAHDTLPGKFIHGDDIKKMEGHYAEVRKTQEFKERKTSYNFIETLTKEKQAGLEHHHHHH”, the protein production result was “failed”. With “MKNDTAALAADIVDFWKKAGPDKWFDKDAAFDNHFHDRFRDAHFAAARRELDGWLEGAESSLALMLLLDQFPRNCFRGTAHMYATDPLARFFADEAIRRGHDQAVSEDLRVFFYLPFSHAEDIAAQQRACDLNQPLGGLYLHHAEEHRDIVERFGRFPHRNGILLRETTPEERQYLEEGGFSG”, the protein production entry is on record as “not failed”.

With “MKNICFINGSPRSKKANSTLYLNLIDKSLDSKNYTKYYIDTTSSIKGDLESTFKTLLDADYIILAFPLYVYSMPSLLVRFLEDYYIYLKNKDTISQKTNLYAVVNCGFPDAKMNVEALKIVFNCCKKLNINFRFGIGIGAGEFVNFSKNNPLLNKLSSCVYKSINKITYDIENQVSIEINNIFVNPKIPRRLFFIFGHIFWKKWAKRNGIKISALFDKPLEHHHHHH”, the protein production entry was “failed”. As for “MKNILPLMWVIILMFVISQGVSAKGKKEIPKSEYGSYIVIMDLNPAIAYEGDIKGFKATKPGKNKKINPKSANVRKYTSMLSKTHDAALAKANVKSKDKVHDYGIALNGFSAKMTHEQAVALSSQDGVAKVMPDVLRQKMTDNSPSFLDLGGPAGPWLKGYDGEGIVIGVIDTGIWPEHPSFTDDGSYSTPPILLDDSRPNCEFGNTGHRPDDVAFSCNNKLIGARQMLDTYRLIVGATSDEFDSARDEDGHGTHTSSTSGGNANVPANMLGNDYGLISGIAPRAHIVMYKGLGDLGGFGSDLAAAIDQAVADGVDVINYSIGSSSFAIGPDDVAFLFAENAGVFVATSNGNSGPAPATTGSPASTPWVTSVGASTQNRTYQGSASSVGEWEFFGASITAGTAELALIDSAEAGSELCIPGVLDPVAVAGKIVLCLRGAIARVDKSKAVNIAGGAGMILYNANDGESQVTDSHWVPSVHINNTDGLVIKGYISNDASTAVAQIMGGTYTEIDAPSMAGFSSRGPNLLSGDIIKPDVTAPGVNIIAGQTPASEGRGELFQMISGTSMSSPHVAGLFAMIKQAHPNWSPSTAKSALMTTAYQDVMKEDEATPADAFDMGAGHVNPGGKANKGSIFEPGLAYQAGLFEYAAYSCGAELGIFSPGTCGFLESLGIPTDPANLNLPSIGIANVIGSKTVYRSVTGVAKDSGWRTYSVDVDAPAGYEVSVLPASIKLKSGMSATYAVTITNTASPAGEWAHGSITWRDSNDHYSVYSPIAVKGALFEAPANITGSSETGSASIDVTFGYTGDYTASGYGLTAATVDIDSVVQDPDQIFDPGDTFSNAHAIVVSGAAYLRIAIPGVADPNADLDIFLLDSVGNIVGVSANGGTDELIEMELPGDDTYTLWVHGWSAPGGSTDYELYSWVVPMASGSLTVASAPSSATLGATETIGVDWTGATNGKWHFGVIGHSDAGGLIGATLVEVDNR”, the protein production result was “failed”.
